# Measured values as given in patent publication US20220125770A1, “COMBINATION THERAPY OF ALK-POSITIVE NEOPLASIA” (Academisch Medisch Centrum, priority 2019, published 2022).
# Assays:
# [1] = system: MES-type neuroblastoma cells; test: Cell viability (MTT) assay, MES-type cells of isogenic cell line pairs; type: cell-based, human
# Method: […] Seeding densities were optimized for each cell line so that the control, non-treated cells would reach 70-80% confluence by the end of the experiment. […] Metabolic activity was measured by 3-(4,5-dimethylthiazol-2-yl)-2,5-diphenyltetrazolium bromide (MTT) assay, according to the manufacturer's instructions with minor modifications. Sextuple or triplicate measurements were used for each experimental condition. Two-sided t-tests assuming equal variance were used to determine significance. Experiments were repeated at least twice.
# [2] = system: ADRN-type neuroblastoma cells; test: Cell viability (MTT) assay, ADRN-type cells of isogenic cell line pairs; type: cell-based, human
# Method: Cells were plated in 96-well plates, one day before the addition of Lorlatinib (HY-12215, MedChemExpress) and/or TRAIL (Peprotech) to the culture medium. Seeding densities were optimized for each cell line so that the control, non-treated cells would reach 70-80% confluence by the end of the experiment. […] Metabolic activity was measured by 3-(4,5-dimethylthiazol-2-yl)-2,5-diphenyltetrazolium bromide (MTT) assay, according to the manufacturer's instructions with minor modifications. Sextuple or triplicate measurements were used for each experimental condition. Two-sided t-tests assuming equal variance were used to determine significance. Experiments were repeated at least twice.
# SK-N-AS-TRAIL cells = test: Apoptosis of SK-N-AS-TRAIL cells after doxycycline-induced TRAIL expression in vitro; type: cell-based, human; conditions: doxycycline-induced membrane TRAIL expression, 300 ng/ml doxycycline
# Method: The SK-N-AS cell line with inducible TRAIL expression was generated by cloning human TRAIL from pUNO1-hTRAILa vector (InvivoGen) into the lentiviral pINDUCER (pIND) system (Invitrogen). Expression of the TRAIL transgene was induced by the addition of doxycycline to the culture medium at a final concentration of 300 ng/ml. SH-SY5Y-GFP, IMR-GFP and SH-EP2-GFP were generated by lentiviral (pLenti, Invitrogen) transduction of turboGFP (SHC003, Sigma) and SH-EP2-RFP by lentiviral (pLenti, invitrogen) transduction of near-infrared fluorescent protein NirFP (Evrogen). […]
# To determine the effect of doxycycline-induced TRAIL expression on SK-N-AS cells, 150.000 SK-N-AS-TRAIL cells were seeded in triplicate in 6 well/plates in 2 ml medium supplemented with or without 300 ng/ml doxycycline. Cell number was determined using a coulter counter (Beckman) at every 3rd or 4th day and cells were reseeded at similar cell number as at the start until the end of the experiment. The proliferation factor was defined as the ratio of the cells counted and the cells plated.
# Sub-G1 fractions were determined after 72 hours treatment with 300 ng/ml doxycycline. […] After 1 hour incubation, DNA content of the nuclei was analysed using a Accuri C6 flow cytometer (BD biosciences). The cell cycle distribution and apoptotic sub G1 fraction was determined using BD Accuri C6 software.
# SH-SY5Y xenografts = test: SH-SY5Y xenograft tumour growth; type: in vivo, NMRI-Foxn1nu/nu mice; conditions: TRAIL 150 μg/day I.P. 4 weeks; Lorlatinib 5 mg/kg twice a day oral 6 weeks; or both
# Method: For tumour growth assays, 5×10^6 SH-SY5Y cells were suspended in 200 μl of a 50% Matrigel (BD, 354234) solution in PBS and subcutaneously injected in NMRI-Foxn1nu/nu mice (NKI; Janvier). After tumour outgrowth to around 200-250 mm^3, mice were randomized to control or treatment groups. The control group received 150 μl PBS daily intraperitoneally (I.P.) for 4 weeks (day 1-day 28). The TRAIL group received 150 μg/day through I.P. for 4 weeks (day 1-day 28). The Lorlatinib group received 5 mg/kg twice a day through oral gavage for 6 weeks (day 1-day 42) and 4 weeks (day 29-day 56) of PBS (150 μl/day I.P.). The combination group received Lorlatinib twice a day for 6 weeks (day 1-day 42) and 4 weeks TRAIL (day 29-day 56). Tumour size was measured three times a week. Mice were sacrificed at the humane endpoint (tumor size >1500 mm^3), the tumours were isolated and divided in two parts. One tumour piece was fresh frozen in liquid nitrogen and RNA was isolated using Trizol reagent. The other tumour piece was fixed in 4% (w/v) buffered formaldehyde (Klinipath) and embedded in paraffin for histological analyses. In vivo experiments were conducted at the NKI therapeutical intervention unit after ethical approval from the animal experiments committee of the NKI was obtained (AvD:30100 2015 407 appendix 1; WP8156).
# [3] = system: SK-N-SH (ALK-F1174L) and NBL-W (ALK-R1275L) cell lines; test: Cell viability (MTT) assay, cell lines with heterogeneous MES and ADRN composition; type: cell-based, human; conditions: Lorlatinib-only or TRAIL-only (100 ng/ml), 120 hours
# Method: Seeding densities were optimized for each cell line so that the control, non-treated cells would reach 70-80% confluence by the end of the experiment. […] Metabolic activity was measured by 3-(4,5-dimethylthiazol-2-yl)-2,5-diphenyltetrazolium bromide (MTT) assay, according to the manufacturer's instructions with minor modifications. Sextuple or triplicate measurements were used for each experimental condition. Two-sided t-tests assuming equal variance were used to determine significance. Experiments were repeated at least twice.
# [4] = system: mixed culture of SH-SY5Y-GFP (ADRN-type) and SH-EP2-RFP (MES-type) cells; test: Flow cytometry of mixed cultures of SH-EP2-RFP and SH-SY5Y-GFP cells; type: cell-based, human; conditions: 120 hours, relative to DMSO control
# Method: GFP and RFP labelled cells were plated at given densities (see Figure description), collected by trypsin treatment, washed twice with FACS buffer and analysed using flow cytometer (BD biosciences) and BD Accuri C6 software.
# IMR32 cells (ADRN-type) = test: 3D spheroid co-culture of SK-N-AS-TRAIL cells with IMR32-GFP cells; type: cell-based, human; conditions: doxycycline-induced TRAIL expression, 48 hours, 3D model
# Method: (§1) Spheroid assays were performed as described^28. A suspension of 10000 cells of 3:1 SKNAS-TRAIL:SH-EP2-GFP or 3:1 SKNAS-TRAIL:IMR32-GFP was added in triplicate to 96 well round bottom suspension plates. After 48 hours incubation with 0 or 300 ng/ml doxycycline bright-field and fluorescent images of the 3D cultures were taken.
# SK-N-AS-TRAIL xenografts = test: SK-N-AS-TRAIL xenograft tumour growth; type: in vivo, NMRI-Foxn1nu/nu mice; conditions: TRAIL induced by doxycycline, established tumours 200 mm^3, five-week doxycycline stimulation
# Method: For the SK-N-AS-TRAIL xenograft experiments, 1×10^6 cells were suspended in 200 μl of a 50% Matrigel solution in PBS and subcutaneously injected in NMRI-Foxn1nu/nu mice. After tumour outgrowth to around 200-250 mm^3, mice were randomized to control or treatment groups. The DOX group was provided drinking water with 200 μg/ml doxycycline. DOX-containing water was refreshed weekly. Control mice received regular drinking water ad lib. Mice were screened regularly to follow tumour formation and were sacrificed before tumour reached 1500 mm^3. All animal experiments were conducted under the institutional guidelines and according to the law and approved in DAG155 by the AMC animal ethics committee.
# SH-EP2 cells (MES-type) = test: 3D spheroid co-culture of SK-N-AS-TRAIL cells with SH-EP2-GFP cells; type: cell-based, human; conditions: doxycycline-induced TRAIL expression, 48 hours, 3D model
# Method: as §1
Molecule,"Sensitivity to Alectinib (cell survival) ([1]; isogenic pair with mutant ALK, MES-type cells, 120 hours)","Sensitivity to Alectinib (cell survival) ([2]; isogenic pair with mutant ALK, ADRN-type cells, 120 hours)","Sensitivity to TRAIL (cell viability) ([1]; four isogenic pairs, MES cells, 72 hours of TRAIL treatment)",Apoptosis of SK-N-AS-TRAIL cells (SK-N-AS-TRAIL cells),Tumour growth response during treatment (SH-SY5Y xenografts),Cell killing by single-agent treatment [3],"Sensitivity to TRAIL (cell viability) ([2]; four isogenic pairs, ADRN cells, 72 hours of TRAIL treatment)",Effect on ADRN population (SH-SY5Y-GFP) ([4]; Lorlatinib 5 μM or TRAIL 100 ng/ml),Effect on MES population (SH-EP2-RFP) ([4]; TRAIL 100 ng/ml),Killing of co-cultured ADRN-type IMR32 cells (IMR32 cells (ADRN-type)),Tumour response of established tumours (SK-N-AS-TRAIL xenografts),Killing of co-cultured MES-type SH-EP2 cells (SH-EP2 cells (MES-type))
"CCc1cc2c(cc1N1CCC(N3CCOCC3)CC1)C(C)(C)c1[nH]c3cc(C#N)ccc3c1C2=O [Alectinib, reference compound]",resistance,preferential killing,–,–,–,–,–,–,–,–,–,–
"TRAIL: TNF-related apoptosis-inducing ligand; recombinant soluble human TRAIL (Peprotech; His-tagged for in vivo); also doxycycline-induced transgene in SK-N-AS-TRAIL cells (protein, UniProt P50591 39-281, looked up, extracellular domain His tag, TNF-related apoptosis-inducing ligand; recombinant soluble human TRAIL (Peprotech; His-tagged for in vivo); also doxycycline-induced transgene in SK-N-AS-TRAIL cells) extracellular domain: TNELKQMQDKYSKSGIACFLKEDDSYWDPNDEESMNSPCWQVKWQLRQLVRKMILRTSEETISTVQEKQQNISPLVRERGPQRVAAHITGTRGRSNTLSSPNSKNEKALGRKINSWESSRSGHSFLSNLHLRNGELVIHEKGFYYIYSQTYFRFQEEIKENTKNDKQMVQYIYKYTSYPDPILLMKSARNSCWSKDAEYGLYSIYQGGIFELKENDRIFVSVTNEHLIDMDHEASFFGAFLVG",–,–,efficiently killed,apoptosis of a large proportion of the cells,did not inhibit tumour growth,partly killed,unaffected,reduction of the ADRN population,strongly reduced,not,complete regression,killed
